Article PMC4607316 (Nature, 2015)

B1: Syt1 E295A, Y338W (natural protein, rat, UniProt P21707 1-421, looked up)
chain: MVSASHPEALAAPVTTVATLVPHNATEPASPGEGKEDAFSKLKQKFMNELHKIPLPPWALIAIAIVAVLLVVTCCFCVCKKCLFKKKNKKKGKEKGGKNAINMKDVKDLGKTMKDQALKDDDAETGLTDGEEKEEPKEEEKLGKLQYSLDYDFQNNQLLVGIIQAAELPALDMGGTSDPYVKVFLLPDKKKKFETKVHRKTLNPVFNEQFTFKVPYSELGGKTLVMAVYDFDRFSKHDIIGEFKVPMNTVDFGHVTEEWRDLQSAEKEEQEKLGDICFSLRYVPTAGKLTVVILAAKNLKKMDVGGLSDPYVKIHLMQNGKRLKKKKTTIKKNTLNPWYNESFSFEVPFEQIQKVQVVVTVLDYDKIGKNDAIGKVFVGYNSTGAELRHWSDMLANPRRPIAQWHTLQVEEEVDAMLAVKK
B2: Syt1 R281A, R398A, R399A (natural protein, rat, UniProt P21707 1-421, looked up)
chain: MVSASHPEALAAPVTTVATLVPHNATEPASPGEGKEDAFSKLKQKFMNELHKIPLPPWALIAIAIVAVLLVVTCCFCVCKKCLFKKKNKKKGKEKGGKNAINMKDVKDLGKTMKDQALKDDDAETGLTDGEEKEEPKEEEKLGKLQYSLDYDFQNNQLLVGIIQAAELPALDMGGTSDPYVKVFLLPDKKKKFETKVHRKTLNPVFNEQFTFKVPYSELGGKTLVMAVYDFDRFSKHDIIGEFKVPMNTVDFGHVTEEWRDLQSAEKEEQEKLGDICFSLAYVPTAGKLTVVILEAKNLKKMDVGGLSDPYVKIHLMQNGKRLKKKKTTIKKNTLNPYYNESFSFEVPFEQIQKVQVVVTVLDYDKIGKNDAIGKVFVGYNSTGAELRHWSDMLANPAAPIAQWHTLQVEEEVDAMLAVKK
B3: Syt1 R398Q, R399Q (natural protein, rat, UniProt P21707 1-421, looked up)
chain: MVSASHPEALAAPVTTVATLVPHNATEPASPGEGKEDAFSKLKQKFMNELHKIPLPPWALIAIAIVAVLLVVTCCFCVCKKCLFKKKNKKKGKEKGGKNAINMKDVKDLGKTMKDQALKDDDAETGLTDGEEKEEPKEEEKLGKLQYSLDYDFQNNQLLVGIIQAAELPALDMGGTSDPYVKVFLLPDKKKKFETKVHRKTLNPVFNEQFTFKVPYSELGGKTLVMAVYDFDRFSKHDIIGEFKVPMNTVDFGHVTEEWRDLQSAEKEEQEKLGDICFSLRYVPTAGKLTVVILEAKNLKKMDVGGLSDPYVKIHLMQNGKRLKKKKTTIKKNTLNPYYNESFSFEVPFEQIQKVQVVVTVLDYDKIGKNDAIGKVFVGYNSTGAELRHWSDMLANPQQPIAQWHTLQVEEEVDAMLAVKK

Biological target: syntaxin-1A (endogenous, cultured mouse neurons) (mouse (endogenous in cultured …, UniProt O35526 1-288))
Assay: co-IP

syntaxin-1A (endogenous, cultured mouse neurons) (mouse, sequence (O35526 whole entry): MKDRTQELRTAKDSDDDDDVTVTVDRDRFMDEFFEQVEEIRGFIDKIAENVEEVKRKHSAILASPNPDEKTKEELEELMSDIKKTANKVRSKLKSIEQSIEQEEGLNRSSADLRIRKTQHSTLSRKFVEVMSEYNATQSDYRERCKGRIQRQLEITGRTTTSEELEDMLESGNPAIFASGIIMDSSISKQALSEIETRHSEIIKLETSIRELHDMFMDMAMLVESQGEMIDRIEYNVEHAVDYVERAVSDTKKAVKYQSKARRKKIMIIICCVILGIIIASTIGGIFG

Row | Binder | reduction of co-immunoprecipitated Syt1 against Syt1 WT [%]
1 | B1 | ~50
2 | B2 | ~50
3 | B3 | ~50
